The text below walks through data of patent publication US8420311B2, “Method to block the infection by flaviviruses, molecules and uses” (Centro de Ingenieria Genetica y Biotecnologia, priority 2006, dated 2013).

The subject of one test is Vero cells. In words: Binding of fluoresceinated proteins to the surface of Vero cells (flow cytometry). The class given is cell-based, monkey. How it is done:
FIG. 7. Inhibition of the binding of DIIIE2J to Vero cells by A2M and RAPR13. The pre-fixed cells were incubated with the fluoresceinated proteins, and the intensity of the fluorescence due to binding of the fluoresceinated ligands to the cells was measured by flow cytometry. Each experimental point represents data gathered from a minimum of 20 000 cells. (A) Binding of A2M and RAPR13 to the cells. The depicted values correspond to the average of the intensity of the fluorescence at each point of the assay minus the fluorescence obtained with untreated cells. (B) and (C) The cells were incubated with fluoresceinated DIIIE2J in the presence or absence of the non-fluoresceinated ligands, using the molar ratio indicated on each case. The % binding was calculated from the ratio of the average intensity of the fluorescence of the cells incubated with the mixture of fluoresceinated DIIIE2J plus the proteins, between that of the cells incubated only with fluoresceinated DIIIE2J.
In the case of cultured Vero cells, they were detached from the surface of the culture flask without using proteases, by incubation with PBS pH 7.4, 5 mM EDTA for 10 min. at 37° C., gently tapping the outside of the flask.
The cells, collected and washed as described above, were incubated in fixing solution (PBS pH 7.4, 2% paraformaldehyde, 0.01% NaN3, 1 mM CaCl2, 1 mM MgCl2 for 30 min at 4° C., and the fixing solution was then eliminated by centrifugation at 350×g for 5 min a 4° C. […] The intensity of the fluorescence was quantified by flow cytometry on a PAS III cytometer (Partec, Germany). The values for each experimental point were calculated from measurements on a minimum of 20 000 cells.
Given that this cell line is derived from monkey kidney cells and that the ligands for the A2MR receptor used in the assays are of human origin, a preliminary and necessary step was the corroboration of the binding of the RAPR13 and A2M MeNH2 proteins to Vero cells. With this aim, these proteins were fluoresceinated, and their binding to the surface of Vero cells was measured using flow cytometry. […]
In general terms: In flow cytometry, cells or beads pass a laser one at a time.

The next test relates to DV3 CH53489. In words: Inhibition of the infection of Vero cells by a natural ligand of the A2MR receptor or anti-receptor antibodies (lytic plaques). As to conditions: inhibition percentage; RAP13 and BSA 100 μg/mL, antibody preparations 1/100 dilution; average of three determinations. The class given is cell-based, dengue virus. How it is done:
(§1) Vero cells were grown in 24-well plates to approximately 90% confluence, and washed twice with MEM medium without FCS. The dilutions containing the proteins or the antibodies, according to the objective of the assay, were then added and incubated for 1 hour at 37° C. After the incubation, the virus was added at a multiplicity of infection of 0.1, followed by a subsequent incubation for 1 hour at 37° C. At the end of the second incubation, the unbound virus was eliminated by washing, and the cells were incubated for 5 days at 37° C. in high density medium (MEM supplemented with non essential aminoacids, 1% FCS, 1% carboxymethylcellulose) in order to propitiate the appearance of lytic plaques. The plaques were visualized by staining with 0.1% Naphtol Blue Black in 0.15 Mol/L sodium acetate. Two replicates were used per experimental point in each assay, and three independent determinations were performed. The inhibition percentage was calculated according to the expression
(§2) The assay for the inhibition of infection was performed on 24-well plates seeded with a monolayer of Vero cells at approximately 90% confluence. The dilution of the virus was adjusted to obtain approximately 20 lytic plaques per well. […] There were no significant reductions when the cells were pre-incubated with BSA or with antibody preparations against an unrelated antigen.

Another test has as its system DV4 TVP360. Described as above. The class given is cell-based, dengue virus. The conditions noted are these: inhibition percentage; RAP13 and BSA 100 μg/mL, antibody preparations 1/100 dilution; average of three determinations. How it is done:
as §1, §2

Another test relates to DV1 West Pac 74. Described as above. The class given is cell-based, dengue virus. As to conditions: inhibition percentage; RAP13 and BSA 100 μg/mL, antibody preparations 1/100 dilution; average of three determinations. How it is done: as §1, §2
Another test concerns DV2 S16803. The description is as above. The class given is cell-based, dengue virus. How it is done:
FIG. 8. Effect of recombinant RAP on the infection of Vero cells with DV2, strain S16803. Vero monolayers at 90% confluence were pre-incubated with different dilutions of RAPR13 or BSA, for 1 hour at 37° C., followed by the addition of the viral preparation at a multiplicity of infection of 1 and another incubation at 37° C. for 1 hour. After eliminating the unbound viruses, MEM medium supplemented with non-essential aminoacids, 1% FCS and 1% CMC was added, and the cells were incubated for 5 days at 37° C. The lytic plaques were visualized by staining the monolayer with Naphtol Blue Black. The assays were performed in 24-well plates, using duplicates for each point of the assay.
Vero cells were grown in 24-well plates to approximately 90% confluence, and washed twice with MEM medium without FCS. The dilutions containing the proteins or the antibodies, according to the objective of the assay, were then added and incubated for 1 hour at 37° C. After the incubation, the virus was added at a multiplicity of infection of 0.1, followed by a subsequent incubation for 1 hour at 37° C. […] The inhibition percentage was calculated according to the expression […]

B1: RAPR13: recombinant human LRPAP1 (RAP) protein with N-terminal tag of 6 histidines, SEQ ID. 26 (protein, listed as Homo sapiens)
chain: MGSSHHHHHHSSGLVPRGSHMYSREKNQPKPSPKRESGEEFRMEKLNQLWEKAQRLHLPPVRLAELHADLKIQERDELAWKKLKLDGLDEDGEKEARLIRNLNVILAKYGLDGKKDARQVTSNSLSGTQEDGLDDPRLEKLWHKAKTSGKFSGEELDKLWREFLHHKEKVHEYNVLLETLSRTEEIHENVISPSDLSDIKGSVLHSRHTELKEKLRSINQGLDRLRRVSHQGYSTEAEFEEPRVIDLWDLAQSANLTDKELEAFREELKHFEAKIEKHNHYQKQLEIAHEKLRHAESVGDGERVSRSREKHALLEGRTKELGYTVKKHLQDLSGRISRARHNEL
modifications: N-terminal His6 tag
As to B1, the “binding to the surface of Vero cells” value in the test on Vero cells (fluoresceinated proteins (FIG. 7A)) was “concentration-dependant and saturable binding behavior”. The “binding of fluoresceinated A2M_MeNH2 to Vero cells in the presence of unlabelled protein” value in the test with Vero cells (unlabelled protein at 100-fold molar excess, 30 min. at 4° C. (FIG. 7B)) was “decrease in fluorescence”. The “inhibition of the infection, DV3” value with DV3 CH53489 stood at 60. For the same molecule, the “inhibition of the infection, DV4” value in the test on DV4 TVP360 is given as 75. The “inhibition of the infection, DV1” value in the test with DV1 West Pac 74 turned out to be 65. Also, in the test on DV2 S16803 (inhibition percentage, RAP13 and BSA 100 μg/mL, antibody preparations 1/100 dilution, average of three determinations), the “inhibition of the infection, DV2” value amounted to 76. For the same molecule, in the test on DV2 S16803 (lytic plaque reduction assay, dilutions of RAPR13 (FIG. 8)), the “inhibition of the infection for DV2, concentration dependence” value is “dependent on the protein concentration”.
